Test results published in publication PMC10786891, “Massively parallel profiling of RNA-targeting CRISPR-Cas13d”.
Positions count from the first letter of the chain named. Names and notes keep the numbering of the source.

Molecular target: T1, EsCas13d, nuclease-dead (Eubacterium siraeum, UniProt B0MS50, R295A;H300A;R849A;H854A)
T1 sequence: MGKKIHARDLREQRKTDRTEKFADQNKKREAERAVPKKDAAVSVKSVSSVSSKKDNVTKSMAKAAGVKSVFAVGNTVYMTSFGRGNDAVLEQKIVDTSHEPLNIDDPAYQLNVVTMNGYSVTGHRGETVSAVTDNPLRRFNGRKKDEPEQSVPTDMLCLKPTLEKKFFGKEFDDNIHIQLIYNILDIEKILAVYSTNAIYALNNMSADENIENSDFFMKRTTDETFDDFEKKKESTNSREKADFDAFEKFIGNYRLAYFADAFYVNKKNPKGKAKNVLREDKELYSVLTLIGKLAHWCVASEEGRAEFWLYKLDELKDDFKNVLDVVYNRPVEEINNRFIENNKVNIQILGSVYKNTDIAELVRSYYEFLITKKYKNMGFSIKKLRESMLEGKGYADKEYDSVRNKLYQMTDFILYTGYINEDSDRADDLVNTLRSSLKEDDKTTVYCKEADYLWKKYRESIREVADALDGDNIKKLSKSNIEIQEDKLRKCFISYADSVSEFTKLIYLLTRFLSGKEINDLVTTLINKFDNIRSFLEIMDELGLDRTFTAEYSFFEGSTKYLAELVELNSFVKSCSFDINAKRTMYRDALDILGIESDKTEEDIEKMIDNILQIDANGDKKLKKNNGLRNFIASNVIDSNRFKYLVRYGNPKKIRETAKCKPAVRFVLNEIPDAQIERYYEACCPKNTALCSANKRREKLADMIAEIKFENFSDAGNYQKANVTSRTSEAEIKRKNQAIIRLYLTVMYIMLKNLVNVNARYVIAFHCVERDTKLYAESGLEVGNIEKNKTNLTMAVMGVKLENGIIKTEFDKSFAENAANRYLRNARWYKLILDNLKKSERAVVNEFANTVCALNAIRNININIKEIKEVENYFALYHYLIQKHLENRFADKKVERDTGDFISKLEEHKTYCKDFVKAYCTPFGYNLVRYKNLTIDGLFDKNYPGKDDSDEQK
Assay: crRNA (strand 1, pre-loaded); Mg2+; 40 mM Tris-HCl pH 7.5, 150 mM NaCl, 6 mM MgCl2, 1 mM DTT, 0.1% Tween-20, 0.2 mg/ml BSA; 25 C; 10 min per concentration, then washed
Conditions: tags: His6-TwinStrep-SUMO cleaved; N-terminal SNAP kept (SNAP-Surface 488); label: 3' end held by stalled T7 RNA polymerase

B1: target 1 U3A,G5U (mixed)
RNA 1: CACCCGUGCAAAAAUGCAGGGGUCUAAAACUGAGCGGAUAACCUCUCUAUGG
RNA 2: GGGAAUGGAUCCACAUCUACGAAUUCGUACCAUAGAGAGGUUAUCCUCACACCGAGAUCGGAAGAGCACACGU
- Kd: 14.4 ± 1 nM

B2: target 1 del8,del11 (mixed)
RNA 1: B1 RNA 1
RNA 2: GGGAAUGGAUCCACAUCUACGAAUUCGUACCAUAGAGAGGUACCGCUCACCGAGAUCGGAAGAGCACACGU
- Kd: 25.7 ± 1.7 nM

B3: target 1 C7G,A16C (mixed)
RNA 1: B1 RNA 1
RNA 2: B1 RNA 2 with A36C, C45G, U47G, A49U
- Kd: 63 ± 6 nM

B4: target 1 insU 3' of 20,insG 3' of 8 (mixed)
RNA 1: B1 RNA 1
RNA 2: GGGAAUGGAUCCACAUCUACGAAUUCGUACCAUUAGAGAGGUUAUGCCGCUCACCGAGAUCGGAAGAGCACACGU
- Kd: 20.4 ± 1.6 nM

B5: target 1 insU 3' of 22,insU 3' of 7 (mixed)
RNA 1: B1 RNA 1
RNA 2: B4 RNA 2 with C31U, A32C, U33A, G46C, C47U
- Kd: 43 ± 4 nM

B6: target 1 insU 3' of 15,insA 3' of 7 (mixed)
RNA 1: B1 RNA 1
RNA 2: B4 RNA 2 with U34A, A35G, G36A, A37G, G38U, G46C, C47A
- Kd: 8.2 ± 0.6 nM

B7: target 1 insU 3' of 14,insG 3' of 2 (mixed)
RNA 1: B1 RNA 1
RNA 2: GGGAAUGGAUCCACAUCUACGAAUUCGUACCAUAGAGAUGGUUAUCCGCUCGACCGAGAUCGGAAGAGCACACGU
- Kd: 44 ± 7 nM

B8: target 1 insC 3' of 17,insA 3' of 10 (mixed)
RNA 1: B1 RNA 1
RNA 2: B4 RNA 2 with U34A, A35G, G36C, U45A, G46U
- Kd: 43.2 ± 3.4 nM

B9: target 1 insG 3' of 21 (mixed)
RNA 1: B1 RNA 1
RNA 2: GGGAAUGGAUCCACAUCUACGAAUUCGUACCGAUAGAGAGGUUAUCCGCUCACCGAGAUCGGAAGAGCACACGU
- Kd: 67 ± 10 nM

B10: target 1 U3G,C7G (mixed)
RNA 1: B1 RNA 1
RNA 2: B1 RNA 2 with C45G, U47G, A49G
- Kd: 6.04 ± 0.33 nM

B11: target 1 A9C,G12U (mixed)
RNA 1: B1 RNA 1
RNA 2: B1 RNA 2 with G40U, A43C, U47G, A49U
- Kd: 19.3 ± 1.2 nM

B12: target 1 G15A,A16G (mixed)
RNA 1: B1 RNA 1
RNA 2: B1 RNA 2 with A36G, G37A, U47G, A49U
- Kd: 51 ± 5 nM

B13: target 1 insG 3' of 21,insC 3' of 9 (mixed)
RNA 1: B1 RNA 1
RNA 2: B4 RNA 2 with A32G, U33A, U45C, G46U
- Kd: 83 ± 16 nM

B14: target 1 insA 3' of 11,insG 3' of 8 (mixed)
RNA 1: B1 RNA 1
RNA 2: B4 RNA 2 with U34A, A35G, G36A, A37G, G38A, A39G, G41U, U42A
- Kd: 35.6 ± 2.3 nM

B15: target 1 insG 3' of 14,insC 3' of 9 (mixed)
RNA 1: B1 RNA 1
RNA 2: B7 RNA 2 with U39G, U45C, C46U, G48C, C49G, U50C, C51U, G52C
- Kd: 12.7 ± 0.6 nM

B16: target 1 insG 3' of 9,insU 3' of 4 (mixed)
RNA 1: B1 RNA 1
RNA 2: B7 RNA 2 with U39G, G41U, U43A, A44G, C51U, G52C
- Kd: 12.2 ± 0.4 nM

B17: target 1 C4U,C7A (mixed)
RNA 1: B1 RNA 1
RNA 2: B1 RNA 2 with C45A, U47G, C48U, A49U
- Kd: 11.2 ± 0.8 nM

B18: target 1 C4A,C7G (mixed)
RNA 1: B1 RNA 1
RNA 2: B1 RNA 2 with C45G, U47G, C48A, A49U
- Kd: 9.6 ± 0.4 nM

B19: target 1 A14G,U19C (mixed)
RNA 1: B1 RNA 1
RNA 2: B1 RNA 2 with U33C, A38G, U47G, A49U
- Kd: 63 ± 14 nM

B20: target 1 insC 3' of 12,insG 3' of 8 (mixed)
RNA 1: B1 RNA 1
RNA 2: B4 RNA 2 with U34A, A35G, G36A, A37G, G38A, A39G, G41C
- Kd: 15 ± 0.6 nM

B21: target 1 insC 3' of 20,insC 3' of 11 (mixed)
RNA 1: B1 RNA 1
RNA 2: B4 RNA 2 with U33C, U43C, A44U, U45A, G46U
- Kd: 11.2 ± 1.1 nM

B22: target 1 insG 3' of 19,insU 3' of 2 (mixed)
RNA 1: B1 RNA 1
RNA 2: B7 RNA 2 with A34G, G35A, A36G, G37A, A38G, U39A, G52U
- Kd: 57 ± 13 nM

B23: target 1 insC 3' of 14,insG 3' of 2 (mixed)
RNA 1: B1 RNA 1
RNA 2: B7 RNA 2 with U39C
- Kd: 62 ± 23 nM

B24: target 1 insC 3' of 18,insU 3' of 4 (mixed)
RNA 1: B1 RNA 1
RNA 2: B4 RNA 2 with U34A, A35C, G46C, C48G, G49C, C50U
- Kd: 25.8 ± 1.8 nM

B25: target 1 G17A,C21A (mixed)
RNA 1: B1 RNA 1
RNA 2: B1 RNA 2 with C31A, G35A, U47G, A49U
- Kd: 56 ± 7 nM

B26: target 1 insU 3' of 22,insU 3' of 12 (mixed)
RNA 1: B1 RNA 1
RNA 2: B4 RNA 2 with C31U, A32C, U33A, A44U, U45A, G46U
- Kd: 26.9 ± 1.6 nM

B27: target 1 C6A,G12U (mixed)
RNA 1: B1 RNA 1
RNA 2: B1 RNA 2 with G40U, C46A, U47G, A49U
- Kd: 10.7 ± 0.5 nM

B28: target 1 insC 3' of 17,insU 3' of 7 (mixed)
RNA 1: B1 RNA 1
RNA 2: B4 RNA 2 with U34A, A35G, G36C, G46C, C47U
- Kd: 57 ± 6 nM
